Common to all, as to test: cell-based or functional assay
The target in one assay is human GLP-1 receptor (human, UniProt P43220 24-463).
The target of a further assay is human GCG receptor (human, UniProt P47871 26-477).
The next assay addresses T1, human GIP receptor (human, UniProt P48546 22-466).
T1 sequence (looked up): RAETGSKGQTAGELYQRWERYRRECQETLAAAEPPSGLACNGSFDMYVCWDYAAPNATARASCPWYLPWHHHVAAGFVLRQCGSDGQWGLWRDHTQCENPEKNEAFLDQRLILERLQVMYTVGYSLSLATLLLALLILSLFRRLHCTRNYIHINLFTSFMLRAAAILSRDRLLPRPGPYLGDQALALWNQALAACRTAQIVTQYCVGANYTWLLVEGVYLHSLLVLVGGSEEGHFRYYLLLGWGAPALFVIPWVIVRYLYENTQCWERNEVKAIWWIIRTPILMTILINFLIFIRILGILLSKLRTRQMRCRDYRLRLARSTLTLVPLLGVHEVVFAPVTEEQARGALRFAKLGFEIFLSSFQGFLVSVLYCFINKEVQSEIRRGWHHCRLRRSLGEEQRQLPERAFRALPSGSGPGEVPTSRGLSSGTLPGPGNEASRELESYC

Positions of bridges follow the written chain, without caps; N, C: chain ends. Non-standard residues stand in square brackets, D forms with d. No end group written: not given here. *: point of attachment. Acetyl(2-(4-imidazolyl)) = O=C(Cc1c[nH]cn1)*; Aib = CC(C)(N)C(=O)O

Sequence of human GCG receptor (P47871 26-477): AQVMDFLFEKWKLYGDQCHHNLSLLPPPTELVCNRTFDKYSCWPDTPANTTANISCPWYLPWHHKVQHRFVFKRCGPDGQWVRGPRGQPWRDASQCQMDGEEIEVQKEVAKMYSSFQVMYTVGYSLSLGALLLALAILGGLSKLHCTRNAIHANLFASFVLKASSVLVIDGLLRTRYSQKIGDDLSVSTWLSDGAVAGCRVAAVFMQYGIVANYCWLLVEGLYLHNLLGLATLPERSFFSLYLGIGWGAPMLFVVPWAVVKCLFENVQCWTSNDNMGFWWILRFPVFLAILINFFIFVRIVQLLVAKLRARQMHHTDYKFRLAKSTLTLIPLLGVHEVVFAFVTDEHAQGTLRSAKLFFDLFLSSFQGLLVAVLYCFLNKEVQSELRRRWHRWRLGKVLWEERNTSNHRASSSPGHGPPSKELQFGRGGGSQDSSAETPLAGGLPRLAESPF

Consider {Acetyl(2-(4-imidazolyl))}-GEGTFISDYSIQLDEIAVQDFVEWLLAQKPSSGAPPPSHG (not fully specified; also: ring from underlined residues, positions not shown) [triple agonist of SEQ ID NO: 13], for which the “In vitro activity (%) compared with native peptide: vs GLP-1” value (“In vitro activity (%) … vs GLP-1” for short) in the assay with human GLP-1 receptor was under 0.1%. Also, the “In vitro activity (%) compared with native peptide: vs Glucagon” value (“In vitro activity (%) … vs Glucagon” for short) with human GCG receptor is under 0.1%. Besides, the “In vitro activity (%) compared with native peptide: vs GIP” value (“In vitro activity (%) … vs GIP” below) with human GIP receptor was under 0.1%.
For H[Aib]QGTFTSDYSKYLDEKAQKEFVQWLLDTC (bridge 16-20; not fully specified) [triple agonist of SEQ ID NO: 30], the “In vitro activity (%) … vs GLP-1” value in the assay with human GLP-1 receptor is 142%. Moreover, the “In vitro activity (%) … vs Glucagon” value with human GCG receptor was 0.7%. The “In vitro activity (%) … vs GIP” value with human GIP receptor stood at 0.8%.
For H[Aib]QGTFTSDCSKYLDSRAAQDFVQWLLDGGPSSGAPPPS (not fully specified) [triple agonist of SEQ ID NO: 26], in that order: 64.5%, 0.2% and under 0.1%.
Consider {Acetyl(2-(4-imidazolyl))}-GQGTFTSDLSIQYDSEHQRDFIEWLKDTGPSSGAPPPSHG (not fully specified; also: ring from underlined residues, positions not shown) [triple agonist of SEQ ID NO: 19], for which the “In vitro activity (%) … vs GLP-1” value with human GLP-1 receptor is under 0.1%. Besides, the “In vitro activity (%) … vs Glucagon” value with human GCG receptor was under 0.1%. For the same molecule, the “In vitro activity (%) … vs GIP” value with human GIP receptor is under 0.1%.
In the case of H[Aib]QGTFTSDYSKYLDERACQDFVQWLLDQGGPSSGAPPPS (not fully specified) [triple agonist of SEQ ID NO: 27], the “In vitro activity (%) … vs GLP-1” value with human GLP-1 receptor was determined as 83.1%. Further, the “In vitro activity (%) … vs Glucagon” value with human GCG receptor turned out to be 0.8%. The “In vitro activity (%) … vs GIP” value with human GIP receptor came out at 0.9%.
For {Acetyl(2-(4-imidazolyl))}-GEGTFTSDLSKYLDSRRQQLFVQWLKAGGPSSGAPPPSHG (not fully specified; also: ring from underlined residues, positions not shown) [triple agonist of SEQ ID NO: 11], in that order: 1.4%, under 0.1% and under 0.1%.
With H[Aib]QGTFTSDVSSYLDGQAQKEFIAWLVKGC (not fully specified) [triple agonist of SEQ ID NO: 2], the “In vitro activity (%) … vs GLP-1” value with human GLP-1 receptor is 5.9%. For the same molecule, the “In vitro activity (%) … vs Glucagon” value with human GCG receptor was under 0.1%. Also, the “In vitro activity (%) … vs GIP” value with human GIP receptor was under 0.1%.
Turning to {Acetyl(2-(4-imidazolyl))}-GQGTFTSDYSIQLDEIAVRDFVEWLKNGGPSSGAPPPSHG (not fully specified; also: ring from underlined residues, positions not shown) [triple agonist of SEQ ID NO: 14], in the assay with human GLP-1 receptor, the “In vitro activity (%) … vs GLP-1” value came to 28%. Also, the “In vitro activity (%) … vs Glucagon” value with human GCG receptor was under 0.1%. Also, in the assay with human GIP receptor, the “In vitro activity (%) … vs GIP” value is under 0.1%.
For {Acetyl(2-(4-imidazolyl))}-GQGTFTSDLSKQMDEERAREFIEWLLAQKPSSGAPPPSHG (not fully specified; also: ring from underlined residues, positions not shown) [triple agonist of SEQ ID NO: 17], the “In vitro activity (%) … vs GLP-1” value in the assay with human GLP-1 receptor was determined as 0.2%. The “In vitro activity (%) … vs Glucagon” value in the assay with human GCG receptor is under 0.1%. The “In vitro activity (%) … vs GIP” value with human GIP receptor was under 0.1%.
In the case of {Acetyl(2-(4-imidazolyl))}-GQGTFTSDLSKQMDSEAQQLFIEWLKNGGPSSGAPPPSHG (not fully specified; also: ring from underlined residues, positions not shown) [triple agonist of SEQ ID NO: 16], the “In vitro activity (%) … vs GLP-1” value with human GLP-1 receptor was 2.1%. Besides, the “In vitro activity (%) … vs Glucagon” value with human GCG receptor is under 0.1%. Further, the “In vitro activity (%) … vs GIP” value in the assay with human GIP receptor is under 0.1%.
Consider Y[Aib]QGTFTSDYSKCLDEKRAKEFVQWLLDHHPSSGQPPPS (bridge 16-20; not fully specified) [triple agonist of SEQ ID NO: 22], for which the “In vitro activity (%) … vs GLP-1” value with human GLP-1 receptor was 20.1%. Moreover, the “In vitro activity (%) … vs Glucagon” value with human GCG receptor was determined as 140%. For the same molecule, the “In vitro activity (%) … vs GIP” value in the assay with human GIP receptor stood at 59.7%.
Taken in the same sequence, the figures for Y[Aib]QGTFTSDYSKYLDECRAKEFVQWLLAQKGKKNDWKHNIT (bridge 16-20; not fully specified) [triple agonist of SEQ ID NO: 23] were 4.01%, 9.3% and under 0.1%.
Take H[Aib]QGTFTSDYSKYLDEKAAKEFVQWLLNTC (bridge 16-20; not fully specified) [triple agonist of SEQ ID NO: 29]: in the assay with human GLP-1 receptor, the “In vitro activity (%) … vs GLP-1” value worked out at 38.5%. The “In vitro activity (%) … vs Glucagon” value with human GCG receptor was found to be 6%. Moreover, the “In vitro activity (%) … vs GIP” value with human GIP receptor was under 0.1%.
Taken in the same sequence, the figures for Y[Aib]QGTFTSDYSKYLDECRAKEFVQWLKNGGPSSGAPPPS (bridge 16-20) [triple agonist of SEQ ID NO: 24] were 41.2%, 9.3% and under 0.1%.
For {Acetyl(2-(4-imidazolyl))}-GQGTFTSDLSKQMDSERAREFIEWLKNTGPSSGAPPPSHG (not fully specified; also: ring from underlined residues, positions not shown) [triple agonist of SEQ ID NO: 18], in that order: under 0.1%, under 0.1% and under 0.1%.
Taken in the same sequence, the figures for {Acetyl(2-(4-imidazolyl))}-GEGTFISDLSKYMDEQAVQLFVEWLMAGGPSSGAPPPSHG (not fully specified; also: ring from underlined residues, positions not shown) [triple agonist of SEQ ID NO: 12] were 0.4%, under 0.1% and under 0.1%.
Take Y[Aib]QGTFTSDYSKYLDECRAKEFVQWLLDHHPSSGQPPPS (bridge 16-20; not fully specified) [triple agonist of SEQ ID NO: 21]: in the assay with human GLP-1 receptor, the “In vitro activity (%) … vs GLP-1” value was 17.8%. Besides, the “In vitro activity (%) … vs Glucagon” value in the assay with human GCG receptor amounted to 267%. In addition, the “In vitro activity (%) … vs GIP” value with human GIP receptor is 22.7%.
Regarding H[Aib]QGTFTSDYSKYLDEKRAQEFVCWLLAQKGKKNDWKHNIT (not fully specified) [triple agonist of SEQ ID NO: 28], the “In vitro activity (%) … vs GLP-1” value with human GLP-1 receptor came out at 17.2%. The “In vitro activity (%) … vs Glucagon” value with human GCG receptor was determined as 1.6%. Further, the “In vitro activity (%) … vs GIP” value in the assay with human GIP receptor was under 0.1%.
Turning to H[Aib]QGTFTSDCSKYLDERAAQDFVQWLLDGGPSSGAPPPS (not fully specified) [triple agonist of SEQ ID NO: 25], the “In vitro activity (%) … vs GLP-1” value in the assay with human GLP-1 receptor was found to be 82.6%. The “In vitro activity (%) … vs Glucagon” value in the assay with human GCG receptor stood at 0.1%. Moreover, the “In vitro activity (%) … vs GIP” value in the assay with human GIP receptor was under 0.1%.
For {Acetyl(2-(4-imidazolyl))}-GQGTFTSDLSIQYEEEAQQDFVEWLKDTGPSSGAPPPSHG (not fully specified; also: ring from underlined residues, positions not shown) [triple agonist of SEQ ID NO: 20], in the assay with human GLP-1 receptor, the “In vitro activity (%) … vs GLP-1” value was under 0.1%. For the same molecule, the “In vitro activity (%) … vs Glucagon” value in the assay with human GCG receptor is under 0.1%. In addition, the “In vitro activity (%) … vs GIP” value with human GIP receptor was under 0.1%.
On to Y[Aib]QGTFTSDYSKALDEKAAKDFVNWLLDQHPSSGQPPPSC (bridge 16-20) [triple agonist of SEQ ID NO: 102], for which the “In vitro activity (%) … vs GLP-1” value in the assay with human GLP-1 receptor is 23.3%. For the same molecule, in the assay with human GCG receptor, the “In vitro activity (%) … vs Glucagon” value turned out to be 29.5%. Besides, in the assay with human GIP receptor, the “In vitro activity (%) … vs GIP” value was determined as 58%.
Taken in the same sequence, the figures for H[Aib]QGTFTSDVSSYLLGQAAKQFIAWLVKGGGPSSGAPPPSC (not fully specified) [triple agonist of SEQ ID NO: 3] were 1.8%, under 0.1% and under 0.1%.

Source of the values: patent publication US20230372448A1, “THERAPEUTIC USE OF LONG-ACTING CONJUGATE OF TRIPLE AGONIST ACTING ON ALL OF GLUCAGON, GLP-1 AND GIP RECEPTORS AGAINST MULTIPLE SCLEROSIS” (HANMI PHARM. CO. ,LTD., priority 2020, published 2023).
